How the values were obtained:
[1] = target: T1, rhesus rotavirus (RRV) outer-layer protein VP4, recombinant, wild type (rhesus rotavirus (RRV; G3 serotype), UniProt P12473 1-776, amine-specific Atto dye in some preparations (dye combinations varied)); assay: co-sedimentation; recoating: VP4 added to purified DLPs in at least 5-fold excess at pH 5.2 (sodium acetate), 1.5 h at room temperature; then VP7 in at least 3-fold molar excess with calcium, 30 min; recoated particles separated from excess components by cesium chloride gradient centrifugation; SDS-PAGE and fluorescence imaging of the purified particles; conditions: both partners purified
T1 construct: VP4, outer capsid spike protein of rhesus rotavirus (RRV; G3 serotype); recombinant, not cleaved by trypsin when added to DLPs; Recoated particles were treated with trypsin (cleavage to VP8* and VP5*) only after recoating; also called WT VP4; VP4 wt; source: baculovirus-infected insect cells, purified (AmSO4 precipitation, Phenyl HP, HiTrap Q, S200)

[2] = target: T2, rhesus rotavirus (RRV) VP4 hydrophobic-loop mutant V391D, recombinant (rhesus rotavirus (RRV; G3 serotype), UniProt P12473 1-776, V391D); assay: as above; conditions: both partners purified
T2 construct: VP4 of rhesus rotavirus (RRV; G3 serotype) with V391D in a hydrophobic loop of VP5*; also called V391D VP4; VP4 fusion-loop mutant; source: baculovirus-infected insect cells, purified (AmSO4 precipitation, Phenyl HP, HiTrap Q, S200)

B1: rhesus rotavirus (RRV) outer-layer glycoprotein VP7, recombinant, wild type (natural protein)
chain: QNYGINLPITGSMDTAYANSTQEETFLTSTLCLYYPTEAATEINDNSWKDTLSQLFLTKGWPTGSVYFKEYTDIASFSVDPQLYCDYNVVLMKYDATLQLDMSELADLILNEWLCNPMDITLYYYQQTDEANKWISMGSSCTIKVCPLNTQTLGIGCLTTDTATFEEVATAEKLVITDVVDGVNHKLDVTTATCTIRNCKKLGPRENVAVIQVGGSDVLDITADPTTAPQTERMMRINWKKWWQVFYTVVDYVNQIIQAMSKRSRSLNSAAFYYRI
modifications: amine-specific Atto dye in some preparations (dye combinations varied)
notes: VP7, outer capsid glycoprotein of rhesus rotavirus (RRV; G3 serotype); Ca2+-stabilized trimer; also called WT VP7; VP7 wt
Does B1 bind [1]?
Result: binds

Does B1 bind [2]?
Result: binds
